Source: article doi:10.1101/2020.11.04.368480

Molecular target: light chain of the anti-IL8 IgG1 mAb of the CHO DP-12 cell line
Experiment: SEC + native MS

- stoichiometry N: 2
Substance: light chain of the anti-IL8 IgG1 mAb of the CHO DP-12 cell line (antibody)
